B1: AtAbf43C_GH43 (Acetivibrio thermocellus ATCC 27405) (protein)
chain: DPDKADDSVIVTNPIVRRRADPWVYRHTDGYYYMTASVPEYDRIELRRSRTLQGLSTATPKTIWRRHSSGIMGGHIWAPEIHFIDGKWYIYFSAGTSTNYFDIRLYVLECSDSNPLTGTWVEKGQLKTNWESFTLDATTFEHNGTRYLVWAQKDPKIASNSNIYIAKMNGPLAITGNQVMISTPEYSWEKIGYAVNEGPAVLKKNGKIFITFSASATDANYCMGLLTASDTANLLDPKSWHKSPNPVFQSNPSTGQYGPGHNSFTTSPDGKVDIMVYHARNYRDITGDPLYDPNRHTRAQIVNWNADGTPDFGIPVADGTNVIYIPPQ
notes: isolated GH43 catalytic domain, residues 167-494, no CBM42, cloned in pET28b(+) and IMAC-purified, E. coli BL21(DE3) Rosetta2
B2: AtAbf43C (Acetivibrio thermocellus ATCC 27405) (protein)
chain: TGADGAIAKLQSYNYSHMYIRNANFDVRIDDNVTPETDAQWVLVPGLANSGEGYVSIQSVDHLGYYLRHWNYDFRLEKNDGTRIFAEDATFKMVPGLADPSYTSFQSYNYPTRYIRHYNYLLRLDEIVTALDREDATFRVIDSSSVDPDKADDSVIVTNPIVRRRADPWVYRHTDGYYYMTASVPEYDRIELRRSRTLQGLSTATPKTIWRRHSSGIMGGHIWAPEIHFIDGKWYIYFSAGTSTNYFDIRLYVLECSDSNPLTGTWVEKGQLKTNWESFTLDATTFEHNGTRYLVWAQKDPKIASNSNIYIAKMNGPLAITGNQVMISTPEYSWEKIGYAVNEGPAVLKKNGKIFITFSASATDANYCMGLLTASDTANLLDPKSWHKSPNPVFQSNPSTGQYGPGHNSFTTSPDGKVDIMVYHARNYRDITGDPLYDPNRHTRAQIVNWNADGTPDFGIPVADGTNVIYIPPQTPTPIPTNSPTPSDLIY
notes: residues 21-511 of 580, no signal peptide or dockerin I domain, C-terminal LEHHHHHH tag, pET28b(+), E. coli BL21(DE3) Rosetta2

How the values were obtained:
[1] = biological target: T1, AtAbf43C (Acetivibrio thermocellus, UniProt A3DHB3, D302A); experiment: pNP release at […] nm, activity relative to wild type; assay type: biochemical; settings: 5 mM substrate, pH 5.5 sodium acetate, 65 °C, 10 min; catalytic residue
T1 construct: gene Cthe_2138; residues 21-511 of 580, no signal peptide or dockerin I domain, C-terminal LEHHHHHH tag, pET28b(+), E. coli BL21(DE3) Rosetta2
T1 sequence (A3DHB3 entry or part of it D302A): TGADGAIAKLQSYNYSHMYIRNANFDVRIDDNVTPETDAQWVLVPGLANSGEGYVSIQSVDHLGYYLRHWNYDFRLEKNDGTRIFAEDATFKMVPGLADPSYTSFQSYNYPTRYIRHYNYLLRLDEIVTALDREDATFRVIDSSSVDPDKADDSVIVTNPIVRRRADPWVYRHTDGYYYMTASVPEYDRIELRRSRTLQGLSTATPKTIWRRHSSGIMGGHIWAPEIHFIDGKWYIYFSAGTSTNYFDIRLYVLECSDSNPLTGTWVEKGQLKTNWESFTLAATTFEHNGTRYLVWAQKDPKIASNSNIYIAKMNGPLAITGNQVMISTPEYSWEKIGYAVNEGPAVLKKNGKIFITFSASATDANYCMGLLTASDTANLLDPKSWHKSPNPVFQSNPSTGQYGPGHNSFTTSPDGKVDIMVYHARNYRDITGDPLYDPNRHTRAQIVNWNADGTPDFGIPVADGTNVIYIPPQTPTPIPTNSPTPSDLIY

[2] = biological target: T2, AtAbf43C (Acetivibrio thermocellus, UniProt A3DHB3, D187A); experiment: as above; assay type: biochemical; settings: 5 mM substrate, pH 5.5 sodium acetate, 65 °C, 10 min; catalytic residue
T2 construct: gene Cthe_2138; residues 21-511 of 580, no signal peptide or dockerin I domain, C-terminal LEHHHHHH tag, pET28b(+), E. coli BL21(DE3) Rosetta2
T2 sequence (A3DHB3 entry or part of it D187A): as the sequence (A3DHB3 entry or part of it D302A) above, with D167A, A282D counted along it

[3] = biological target: T3, AtAbf43C (Acetivibrio thermocellus, UniProt A3DHB3, E363A); experiment: as above; assay type: biochemical; settings: 5 mM substrate, pH 5.5 sodium acetate, 65 °C, 10 min; catalytic residue
T3 construct: gene Cthe_2138; residues 21-511 of 580, no signal peptide or dockerin I domain, C-terminal LEHHHHHH tag, pET28b(+), E. coli BL21(DE3) Rosetta2
T3 sequence (A3DHB3 entry or part of it E363A): as the sequence (A3DHB3 entry or part of it D302A) above, with A282D, E343A counted along it

[4] = substrate: O=[N+]([O-])c1ccc(O[C@@H]2O[C@@H](CO)[C@H](O)[C@H]2O)cc1; experiment: purified protein; assay type: biochemical, Acetivibrio thermocellus; settings: pH 5.5, 100 mM sodium acetate, 65 °C, 2 min, 0.9-36 mM substrate, full saturation not achieved

Row | Molecule | % activity relative to wildtype [1] | % activity relative to wildtype [2] | % activity relative to wildtype [3] | Km [4] | kcat [4] | kcat/Km [4]
1 | O=[N+]([O-])c1ccc(O[C@@H]2O[C@@H](CO)[C@H](O)[C@H]2O)cc1 [pNPAra, para-nitrophenol-α-L-arabinofuranoside] | activity on pNPAra was completely eliminated in any of the versions | activity on pNPAra was completely eliminated in any of the versions | activity on pNPAra was completely eliminated in any of the versions |  |  | 
2 | B1 |  |  |  | 59.6 ± 12.1 mM | 238 ± 33.4 s⁻¹ | 4000 ± 1000 M⁻¹ s⁻¹
3 | B2 |  |  |  | 22.7 ± 4.1 mM | 269 ± 25.5 s⁻¹ | 11900 ± 2400 M⁻¹ s⁻¹

From paper PMC12493170, “Functional and structural characterization of AtAbf43C: an exo-1,5-α-L-arabinofuranosidase from Acetivibrio thermocellus DSM1313” (Biochemical Journal, 2025)
